Reference: the DeepSol protein solubility set

Assay: soluble on expression in E. coli; label from the status in PepcDB or PDB records
For “MGSDKIHHHHHHMLPGSRSLSKELGINRKTVQAVYEELEAQGWLVTRPRKGTFVADVLPEKKPHIEPRADRKVSNKPIIQQVAQRPHNDGVPDPRLIPYELFSRAYRHALIKITQNQYMGYGDPRGMAELRQALKQMLSMERFMNVAEDEICVVRGSQMGIFLASRALPNRQGVIVVEELYYPSAVKAFQSNGFQVVSVKLDDQGIVIEDLERILKEHSVAAIYTTPHHQYPTTVTMTMSRRLQLLELSKKWGFYIIEDDYDHEFHYDSRPMPPLASLPHSELVIHVGSLSKVFAPGIRLGYIVAAPTIIQTITEDILLIDRQGNNITELALADLMQRGEIKRHIRKMKKIYQLRRDHALAEFQRVFAESIEIQPPAGGMALWVKFQKSFTQDQLIKLKELNIDTEQKFKQKECANHCIRFGFAALSEKEITSLIETLNEAL”, the “soluble on expression in E. coli” value was “not soluble”.
With “MGSDKIHHHHHHMLPPLDSDLMRGFLAVVETGSLTRAGHRLGRTQSAISMQIRKLEDSLGQSVFVREPRGVRLTERGKQLLPYAQRVVGLLDEAAIALREKPLSGPVRVGVPDEYIQGVLPAVLSAFSQRHPETQVTLRCDFSAPQLEALNSDKIDLAVIYEGYSTDEVEVLAVDPTVWVTSISHAQHLHRPLPISIYFSSDWCRDFALHSLEQIGIPYFAAFECDTSGGMRSAVSNGIAVAPLARSSIPPGCRELTAEDGFMGVDNARVVLRRNPAGSSTAIEAMVATLREAFWPLTKNGGL” the “soluble on expression in E. coli” value was “not soluble”.
For “MGSDKIHHHHHHMLPRLLDRCAGMVSHDWTALDRDLRRFLPKKSVVSKRQELLVYDCDGLTIDRHCPPLAVLPETTEEVSQILACCHRHSIPFVARGSGTGLSGGALVEQEALLVVTSRMRRILSMDLDNHTITVQPGVINSWVTRAVAGEGFYYAPDPSSQVVCSIGGNVAENSGGVHCLKYGVTSNHVLGLEVVLADGTVTLLGGGLPEHAELDLRGAFIGSEGTLGIATAITLRLLRAPQHVTVLLADFPTMESAGEAVCQVTAAGVLPAGMEIMDNFMINAVNDLFGFDEYPRDAAAVLLIELDGQAAEVTVAADQASGLCSKAGARTIRRAEEPADRALLWKGRKSAFAAVGQISPTYYVQDGVVPRSTLPRVLMAIERLSREYELPVANVFHAGDGNLHPLILYNADTPDVESRVRDLGSAILRECLDVGGSITGEHGVGADKRCYLDWMFAADDLSTMKLLRRAFDPDGRANPDKIFPTPKSCGESARRQVILTSEGLEMPSEAKAF”, the “soluble on expression in E. coli” value was “not soluble”.
In the case of “MGSDKIHHHHHHMLQFIPVFDGNTIAVRASGKLTLEDFQQFFPQLETQIKRLGKISLLFEFDNFSGWDLDAAIDDIKFGMKHLSDFERIAMVGDKSWEHWMALIAKPFLISSEVRYFNRENLQQAWDWLREKQEFEKAVEQLQPYQNIVVAVDFSLYSKHACKRAIELANYYQASLTLLNVVPEVLAYTLYGDPVGYNVVDLDIIKDQNKKNIDAAQFQMKAFVNDLDTNFPIETKVICGEINYGVVSFLEAQHIDLAIFGAKKKKGINKLLGSVPHYVQNHSRCEILIVPVQGPVF”, the “soluble on expression in E. coli” value is reported as “not soluble”.
In the case of “MGSDKIHHHHHHMLRAELHVHSSFSDGRDGVRKILEAAVEKKLEVIAITDHDTVQGSLEAIDIVKEEHLPLKVLPGCEVTASTGHVLVYGITKDIEPRMSVEETCKIARELGGVCFLAHPFDFIRKGSVRLKDFKMVDGIETFNAKSYFNFLAKRYAKKLSKPEIAGSDAHSARAVGLAINYLPDEFDLLNALFHARFDGRRVSIRERLAFLRFRLNQRL”, the “soluble on expression in E. coli” value is reported as “not soluble”.
For “MGSDKIHHHHHHMLRSLPVLMYHYISRVHDSIAVHPDQFEDHCRGMAAEGWRGVSLAEAEAFLAEGTPLPERSVLITFDDGFLDNYVHALPILEKYGHCGTVFATAGKLETAAGLRPTLADVWSGRIPAEGLPRVDAPFVKHRLGFDERHDLFLNWDEARHAESTGTLAVAAHSMWHRSVFTSASYEGFYAPQRRGRTFDRVEGDVPWGLPRFKVGPALRERAFLPSAELLHAIRETVPQDKDGAYAFFSDTAATERLMHTVEAFGADGLGRFETDAERTERMYREMRDCKQLLENELGHPVTTFCWPWGAFCDEALAIGRELGFRVFLTTLMGSNPPSAPLAVHRFKAKAKPWSWLRLRLHVYSRPLLANLYARMRL”, the “soluble on expression in E. coli” value was “not soluble”.
For “MGSDKIHHHHHHMLSAKIEVYDSRFYQLVGTEARLEELFDKAIWAEGPVWLEKQQAVIFSDVKGNTMYRWTAEQGTQIFRQPSQFANGNAVDAAGNLITCEHGRRAISLTDHAGNIRVLVNKLEGKRLNSPNDVVVKSDGTIWFTDPPYGILSDAEGKKSPSEIIGCYVYCYDPITDDIHIATFNVMRPNGLAFCENETKLVVADMSVVEFKRTGLHHLVVFDVIDNQLYNRTSIAAISPGIPDGFCIDHNNVIYCSCETGLLVLLLDGTFLGRILLDKTASNCTFGLDQKTLFITATNSLYCLTFK”, the “soluble on expression in E. coli” value was “not soluble”.
With “MGSDKIHHHHHHMLSGENKMLDIDKSTVDFLVTENMVQEVEKVLSHDVPLVHAIVEEMVKRDIDRIYFVACGSPLNAAQTAKHLADRFSDLQVYAISGWEFCDNTPYRLDDRCAVIGVSDYGKTEEVIKALELGRACGALTAAFTKRADSPITSAAEFSIDYQADCIWEIHLLLCYSVVLEMITRLAPNAEIGKIKNDLKQLPNALGHLVRTWEEKGRQLGELASQWPMIYTVAAGPLRPLGYKEGIVTLMEFTWTHGCVIESGEFRHGPLEIVEPGVPFLFLLGNDESRHTTERAINFVKQRTDNVIVIDYAEISQGLHPWLAPFLMFVPMEWLCYYLSIYKDHNPDERRYYGGLVEY” the “soluble on expression in E. coli” value was “not soluble”.
In the case of “MGSDKIHHHHHHMLSRTASELYWMARYLERAESLARVLDVTYKLSMMPRHSQQQHDLALPLNLTMTHELFQQRYAHFSMNNLLNFFALDSENPSSIYNCIEMAWNNAHAVRGSLSSEVWECINTTRIDIRNLRHQGVDNIGINEFFDWVKERSHLFRGAMFGTLLRNDAQCFIRIGTLIERACATAQLLNVKHQQLHNDPDPVREYYRLDTLLRAVSAREAYHSIYRQPISPETVTELLVLREDVPRSLHACVGDLVLQLEAIGSQRAKVPHRLAHLLHVELRFSTLDDVLAQDLPTYLNNFIIKINELADSIRHTYLEAL”, the “soluble on expression in E. coli” value is reported as “not soluble”.
With “MGSDKIHHHHHHMLTASSITLQFASKPLFENVNVKFGDGNRYGLIGANGSGKSTFMKILAGELEPTAGNVSLDPGERMAWLRQDQFGYEDQRVLDVVMQGHVEMWRVMQEKDAIYMNPEASEEDYLRAAELEGKFGELGGYDAEARAGELLLGVGIPTEQHQGTMSQIAPGFKLRVLLAQALFSKPDILLLDEPTNNLDINTIRWLEQVLNESNATIVVISHDRHFLNQVCTHMADLDYGTIKVWPGNYDDYMLASSEAKARQAAANARAKDKVAELQEFVRRFSANKSKARQATSRMKMIDKIKIEDFKPSSRQNPYIRFEPEKALHRRALEVENLKFGYDAEPLFTNLGFSLEAGEKLAVIGGNGVGKSTLMKLLMGELTPAYGEIRWSENANVGYFSQDHVADFDMDLNLTDWMHQWTQAGDDEQVLRGILGRLLFSGDDVKKSVRVLSGGEKGRMLYGKLMLGRHNVLVMDEPTNHMDMESIESLNLALELFKGTLIFVSHDRQFVSSLATRILEITPQGVEFYMGNYDEYLHSKGLE” the “soluble on expression in E. coli” value was “not soluble”.
In the case of “MGSDKIHHHHHHMLTDMQRDSASSSTVTTEQIVYGALPLTTINEPECRAIAITSINGSATLSGVSGPMGDQTDADLLIQLRGWADAIVVGAETARKENYGPVVLPHGIKNQRQKLGRCGLPKLTLLSKSLYFDFSSELFSPDLPSELSPLVITQQPANNSEQWDQRLQKLIDVGVEVIVAPTSTNPLKIAFDALHARRLKKISIEGGPSVYRQALSLGIVDRLHLTIAPNIICPVESPLFGKISDDSFTTRLVLEMLSSSPNGLIFSRYKVIRDTLGNPTQ”, the “soluble on expression in E. coli” value is reported as “not soluble”.
For “MGSDKIHHHHHHMMFESHSQIISAAEELLTKRYGGSQSLTDWDRLAGSGAAVVLRARVASSPFFPNRSVVVKYIPPTGRLIDESTLMREVVSYQFTTSLNADVRPGPVLLAYDVEQHLLVISDSGDGDTFAELLERHENDVRIGILRNLGEAIGKLHVGTAAKEQDFNILLHRMLVKHPEVQPMHGFRERLLRLNIGVGITLVEQAGITVPDVVKSFAQEAMRRLVTGQHRAFTPFDLSPDNIIVADRTEFLDYEWAGFRDAAFDVASVIAGFPQYLFARPVSDAEADIFIESWVQQVGDMWPNVRNTPRLHARILTALIGWAFSSVTMMYLGSSSEAYEELFHKIGTEKATAFDVEEIVKEIAATGDILLGTFVPETSEDADLVALLRQDLYETFEALNRFAQRESDTRFPVVADFAQAVVDLLTDDESTE”, the “soluble on expression in E. coli” value was “not soluble”.
